Data as given in article PMC6298698.

Assays:
[1] = target: mouse Slo1 (mSlo1) BK channel α subunit, mbr5 splice variant (mouse)
[2] = target: mouse Slo1 (mSlo1) BK channel α subunit, mbr5 splice variant (mouse); remark: listed apart in the source

Binder	experimental rectification ratio Rβ2* of mSlo1+β2(C1S), not corrected for unbinding [1]	unbinding probability (q), from the non-inactivating offset of currents, inside-out patches of HEK293 cells, 10 μM Ca2+ [2]	experimental rectification ratio Rβ2* of mSlo1+β2(C2S), not corrected for unbinding [1]
human BK channel β2 subunit C1S (C84S) (natural protein) MFIWTSGRTSSSYRHDEKRNIYQKIRDHDLLDKRKTVTALKAGEDRAILLGLAMMVCSIMMYFLLGITLLRSYMQSVWTEESQSTLLNASITETFNCSFSCGPDCWKLSQYPCLQVYVNLTSSGEKLLLYHTEETIKINQKCSYIPKCGKNFEESMSLVNVVMENFRKYQHFSCYSDPEGNQKSVILTKLYSSNVLFHSLFWPTCMMAGGVAIVAMVKLTQYLSLLCERIQRINR	1.22	0.48	–
human BK channel β2 subunit C2S (C97S) (natural protein) MFIWTSGRTSSSYRHDEKRNIYQKIRDHDLLDKRKTVTALKAGEDRAILLGLAMMVCSIMMYFLLGITLLRSYMQSVWTEESQCTLLNASITETFNSSFSCGPDCWKLSQYPCLQVYVNLTSSGEKLLLYHTEETIKINQKCSYIPKCGKNFEESMSLVNVVMENFRKYQHFSCYSDPEGNQKSVILTKLYSSNVLFHSLFWPTCMMAGGVAIVAMVKLTQYLSLLCERIQRINR	–	0.09	1.43
human BK channel β2 subunit C6S (C142S) (natural protein) MFIWTSGRTSSSYRHDEKRNIYQKIRDHDLLDKRKTVTALKAGEDRAILLGLAMMVCSIMMYFLLGITLLRSYMQSVWTEESQCTLLNASITETFNCSFSCGPDCWKLSQYPCLQVYVNLTSSGEKLLLYHTEETIKINQKSSYIPKCGKNFEESMSLVNVVMENFRKYQHFSCYSDPEGNQKSVILTKLYSSNVLFHSLFWPTCMMAGGVAIVAMVKLTQYLSLLCERIQRINR	–	0.41	–
human BK channel β2 subunit C7S (C148S) (natural protein) MFIWTSGRTSSSYRHDEKRNIYQKIRDHDLLDKRKTVTALKAGEDRAILLGLAMMVCSIMMYFLLGITLLRSYMQSVWTEESQCTLLNASITETFNCSFSCGPDCWKLSQYPCLQVYVNLTSSGEKLLLYHTEETIKINQKCSYIPKSGKNFEESMSLVNVVMENFRKYQHFSCYSDPEGNQKSVILTKLYSSNVLFHSLFWPTCMMAGGVAIVAMVKLTQYLSLLCERIQRINR	–	0.08	–
human BK channel β2 subunit (KCNMB2), wild type (natural protein) MFIWTSGRTSSSYRHDEKRNIYQKIRDHDLLDKRKTVTALKAGEDRAILLGLAMMVCSIMMYFLLGITLLRSYMQSVWTEESQCTLLNASITETFNCSFSCGPDCWKLSQYPCLQVYVNLTSSGEKLLLYHTEETIKINQKCSYIPKCGKNFEESMSLVNVVMENFRKYQHFSCYSDPEGNQKSVILTKLYSSNVLFHSLFWPTCMMAGGVAIVAMVKLTQYLSLLCERIQRINR	–	0.07	–
human BK channel β2 subunit C4S (C105S) (natural protein) MFIWTSGRTSSSYRHDEKRNIYQKIRDHDLLDKRKTVTALKAGEDRAILLGLAMMVCSIMMYFLLGITLLRSYMQSVWTEESQCTLLNASITETFNCSFSCGPDSWKLSQYPCLQVYVNLTSSGEKLLLYHTEETIKINQKCSYIPKCGKNFEESMSLVNVVMENFRKYQHFSCYSDPEGNQKSVILTKLYSSNVLFHSLFWPTCMMAGGVAIVAMVKLTQYLSLLCERIQRINR	–	0.08	–
human BK channel β2 subunit C3S (C101S) (natural protein) MFIWTSGRTSSSYRHDEKRNIYQKIRDHDLLDKRKTVTALKAGEDRAILLGLAMMVCSIMMYFLLGITLLRSYMQSVWTEESQCTLLNASITETFNCSFSSGPDCWKLSQYPCLQVYVNLTSSGEKLLLYHTEETIKINQKCSYIPKCGKNFEESMSLVNVVMENFRKYQHFSCYSDPEGNQKSVILTKLYSSNVLFHSLFWPTCMMAGGVAIVAMVKLTQYLSLLCERIQRINR	–	0.09	–
human BK channel β2 subunit C5S (C113S) (natural protein) MFIWTSGRTSSSYRHDEKRNIYQKIRDHDLLDKRKTVTALKAGEDRAILLGLAMMVCSIMMYFLLGITLLRSYMQSVWTEESQCTLLNASITETFNCSFSCGPDCWKLSQYPSLQVYVNLTSSGEKLLLYHTEETIKINQKCSYIPKCGKNFEESMSLVNVVMENFRKYQHFSCYSDPEGNQKSVILTKLYSSNVLFHSLFWPTCMMAGGVAIVAMVKLTQYLSLLCERIQRINR	–	0.66	–
human BK channel β2 subunit C8S (C174S) (natural protein) MFIWTSGRTSSSYRHDEKRNIYQKIRDHDLLDKRKTVTALKAGEDRAILLGLAMMVCSIMMYFLLGITLLRSYMQSVWTEESQCTLLNASITETFNCSFSCGPDCWKLSQYPCLQVYVNLTSSGEKLLLYHTEETIKINQKCSYIPKCGKNFEESMSLVNVVMENFRKYQHFSSYSDPEGNQKSVILTKLYSSNVLFHSLFWPTCMMAGGVAIVAMVKLTQYLSLLCERIQRINR	–	0.38	–
